Results published in the nanobody polyreactivity screen of Harvey et al. (2022).

Assay: yeast display, Sf9 membrane polyspecificity reagent, FACS + sequencing; frameworks hold sequencing errors
In short: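 Synthetic nanobody libraries on Saccharomyces cerevisiae BJ5465 were galactose-induced for 36–48 hours, stained 1 hour at 4 °C with 10% biotinylated, detergent-solubilized Sf9 membrane reagent and enriched on streptavidin microbeads. FACS then separated cells into low and high (top ~1%) gates by anti-HA (expression) and streptavidin (reagent binding) fluorescence. Genes were colony-PCR amplified, MiSeq 2 × 250 sequenced and CDR-length filtered. A clone's polyreactivity label is that of its gate of origin.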

| Sequence | polyreactivity (PSR sort gate) |
| --- | --- |
| QVQLVETGGGLVQAGGSLRLSCAASGRIFWLYAMGWYRQAPGKERELVASISSGGTTHYADSVKGRFTISRDNAKNTVYLQMNSLKPEDTAVYYCAVRPYYSWAYYYWGQGTQVTLSS | high polyreactivity |
| QVQLVESGGGLVQAGGSLRLSCAASGRIFARNAMGWYRQAPGKESELVAAINWSGGSTYYADSVKGRFTISRDNAKNTVYLQMNSLKPEDTAVYYCATRSSLFRQYLPWYEYWGQGTQVTVSS | low polyreactivity |
| KVQLVESGGGLVQAGGSLRLSCPASGITFYRYVMGWYRQAPGTERELVAAISSGGRTYYADSVKGRFTISRDNAKNTVYLQMNSLKPEDNAVYYCNRAAFQTRYESWGQGTQVTVSS | high polyreactivity |
| QVQLVESGGGLVQAGGSLRLSCAASGRTIDPNAMGWYRQAPGKERELVAAISRTGVRTYYADSVMGRFTISRDNAKNTVYLQMNSLKPEDTAVYYCNRYGARSNDYWGQGTQVPVSS | low polyreactivity |
| QVQLVESGGGLVQAGGSLRLSCAASGSTFPYVMGWYRQAPGKERELVAAISWSGTSTYYADSVKGRFTISRDNAKNTVYLQMNSLKPEDTAVYYCNVVYRVVSPSGGGYWGQGTQVTVSS | high polyreactivity |
| QVQLVVSGGGLVQAGGSLRLSCAASGRTFRSNAMGWYRQAPGKERELVAAISRTGRTNYADSVKGRFTISRDTAKNTVYLQMNSLKPEDTAVYYCAARGYSVPRQERYDYWGQGTQVTVSS | high polyreactivity |
| QVQLVESGGGLVQAGGSLRLSCAASGRTLNWYAMGWYRQAPGKERELVAVINLSGGRTYYADSVKGRFTISRDNAKNTVYLQMNSLKPEDTAVYYCNAPSVWERSYEKYDYWGQATQVTVSS | low polyreactivity |
| QVQLVESGGGLVQAGGSLRLSCAASGSLFTSYAMGWYRQAPGKERELVAAIRESGGRTYYADSVKGRFTISRDNAKNTVYLQMNSLKPEDTAVYYCAADSRVGFGRLYGYWGQGTQVTVSS | high polyreactivity |
| QVQLVESGGGLVQAGGSLRLSCAASGSICAFYGMRWYRQAPGKERELVAAITRSGGSTYYADSVKGRFTISRDNAKNTVYLQMNSLKAEDTAVSYCAKRPHHGSTKYNYWGQGTQVTVSS | low polyreactivity |
| QVQLVESGGGLVQAGGSLRLSCAASGSIFSPYAMGWYRQAPGKERELVAAISFRASTTYYADSVKGRFTISRDNAKNTVYLQMNSLKPEYTAVYYCAKKRPGFLRYGSIGEFQYDYWGQGTQVTVSS | low polyreactivity |
| QVQLVESGAGLVQAGGSLRLSCAASGSIFGPNAMGWYRQAPGKERELVAAISWSGASTYYADSVKGRFTISRDNAMNTVYLQMNSLKPEDTAVYYCAADYYGVSGSGYGYWGQGTQVTVSS | low polyreactivity |
| QVQLVESGGGLVQAGGSLRLSCAASGLIFRAYAMGWYRQAPGKERELVAAITRSGGRTYYADSVKGRFTISRDNAKNTVYLQMNSLTPEDTAVYYCAAEYGNTYSSYTYDYWGQGTQVTVSS | high polyreactivity |
| QVQLVESGGGLVQAGGSLRLSCADSGNIFSWYAMGWYRQAPGKERELVAAITWSGGTTYYADSVKGRFTISRDNAKNTVYLQMNSLKPEDTAVYYCAVFSRYRSGYYSWGQGTQVTVSS | high polyreactivity |
| QVQLVESGGGLVQAGGSLRLSFAASGSIFDDNAMGWYRQAPGKERELVAAITSTDSTNYADSVKGRFTISRDNAKNTVYLQMNSLKPEDTAVYYCARDIKHATSYEALYYSDYDYWGQGTQVTVSS | low polyreactivity |
| QVQLVESGGGLVQAGGSLRLSCAASGSTFQVYAMGWYRQAPGKERELVATIRGVGSTNYADSVKGRFTISRDNAKKTVYLQMNSLKPEDTAVYYCNAAVSQFSHRWRRRITFDYWGQGTQVTVSS | low polyreactivity |
| QVQLVESGGGLVQAGGSLRLTCAASGSTFHLYAMGWYRQAPGKEREFVAAIRGRGGNTYADSVKGRFTISRDNAKNTVYLQMNSLKPEDTAVNYCAAPLLRDLRSPYSYNYWGQGTQVTVSS | low polyreactivity |

| Sequence | polyreactivity (PSR sort gate) |
| --- | --- |
| QVQLVESGGGLVQAGGSLRLSCTASGRIFTRNAMGWYRQAPGKERELVASISRTGTSTYYADSVKGRFTISRDNEKNNVYLQMNSLKPEDTAVYYFNARRTSVRFDYWGQGTQVTVSS | high polyreactivity |
| QVQLVESGGGLLQAGGSLRLSCAASGRIFYSNAMGWYRQAPGKERELVATRTRRGGGTYYADSVKGRFTISRDNAKNSVYLQMNSLKPVDTAVYSCNAYDILPGGNFWYWYGSWGQGTQVTVSS | high polyreactivity |
| QDQLVESGGGLVQAGGTLRLSCAASGSTFARYAMGWYRQAPGKERELVAAISRRGGSTYYADSVKGRFTISRDNAKITVDLQMNSLKPEDTAVYSCAARYGIISYLEYDYWGQGTQVTVSS | high polyreactivity |
| QVQLVESGGGLVQAGGSLRLSCAASGIIFGRYTMGWYRQAPGKERELVAAITSSGITYYADSVKGRFTISRDNAKNTVYLQMNSLKPEETAVYYCNADYSIPGYYWPYDYWGQGTQVTVSS | low polyreactivity |
| QVQLVESGGGLVQAGGSLRLSCASSGSIFTGNVMGWYRQAPGKERELVAAISSRGGNTYYADSVKGRFTISRDNAKNTVYLQMNSLKPEDTAVYYCNKVKYTWYDWGQGTQVTVSS | high polyreactivity |
| QVQLVESGGGLVQAGGILRLSCAASGSIFEWYAMGWYRQAPGKEREFVAAINSGGSTYYADSVKGRFTISRDNAKNTVYLQMNSLKPEDTAVYYCNKVSYGYSTYGYWGQGTQVTVSS | low polyreactivity |
| QVQLVESGGGLVQAGGSLRLSCAASGYTFQTYAMGCYRQAPGKERELVAAITRSGTRTYYADSVKGRFTISRDNAKNTVYLQMYSLKPEDTAVYYCAAETYYSIYDYWGQGTQVTVSS | high polyreactivity |
| QVQLVESGGGLDQAGGSLRLSCAASGRIFVPNAMGWYRQAPGKERELVAAINWGGGSTYYADSVKGRFTISRDNAKNTVYLQMNSLKPEDTAVYYCAADHPYTIGVLPNQQFDYWGQGPQVTVSS | low polyreactivity |
| QVQLVESGGGLVQAGGSLRLSCAASGRFFKSYAMGWYRQAPGKERELVAAISRSDDTTYYADSVKGRFTISRDNAKNTVYLQMNSLKPEDTAVYYCAADTWRDGDDYWGQGTQVTVSS | low polyreactivity |
| QVQLVESGGGLVQAGGSLRLSCAASGLIFHYYAMGWYRQAPGKERELVAAISSGGSTNYADSVKGRFTISRDNAKNTVYLQMNSLKPLDTAVYYCAARSGARRGNVYVYYEYYYWGQGTQVTVSS | low polyreactivity |
| QVQLVESGGGLVQAGGSLRLSCAASGGIFGIYAMGSYRQAPGKERELVAAINGGTSTYYADSVKGRFTISRDNAKNTVYLQMNSLKPEDTAVYYCAADWRYLYYALDYWGQGTQVTVSS | low polyreactivity |
| QVQLVESGGGLVQAGGSLRLSCAASGRIFYRNAMGWYRQAPGKERELVAAITGSGGSTYYADSVKGRFTISRDNAKNTVYLQMNSLKPEDTAVYYCNKPYFLYRPLGTGMEYWGQGTHVTVSS | high polyreactivity |
| QVQLVESGGGLVQAGGSLRLSCAASGFIFRNYAMGWYRQAPGKERELVASISRGTSTNYADSVKGRFTISRDNAKNTVDLQMNSLKPEDTAVYYCAVGRYPYGSARYGFDYWGQGTQVSVSS | high polyreactivity |
| QVQLVESGGGLVQAGGSLRLSCAASGSIFAYNAMGWYRQAPGKERELVAANSYSGASTYYADSVKGRFTISRDNAKNTVYLQMNSLKPEDTEVYYCAATSRRRGTKGYWQVWPRFDYWGQGTQVTVSS | high polyreactivity |
| QVQLVESGGGLVQAGGSLRLSCADSGLTFSVYTMGWYRQAPGKERELVAAITTSGGRTYYADSVKGRFTISRDNAKNTVYLQKNSLKPEDTAVYYCAAVRTGDTTGTMGYWGQGTQVTVSS | high polyreactivity |
